Results on ten molecules are retold here after US20250101098A1 (R P SCHERER TECHNOLOGIES, published 2025).

Changes are numbered by the printed parent chain. Names may count otherwise.

In assay [1] the target is T1, human nectin-4 protein expressed on the surface of cells (human, UniProt Q96NY8 32-510).
T1 sequence: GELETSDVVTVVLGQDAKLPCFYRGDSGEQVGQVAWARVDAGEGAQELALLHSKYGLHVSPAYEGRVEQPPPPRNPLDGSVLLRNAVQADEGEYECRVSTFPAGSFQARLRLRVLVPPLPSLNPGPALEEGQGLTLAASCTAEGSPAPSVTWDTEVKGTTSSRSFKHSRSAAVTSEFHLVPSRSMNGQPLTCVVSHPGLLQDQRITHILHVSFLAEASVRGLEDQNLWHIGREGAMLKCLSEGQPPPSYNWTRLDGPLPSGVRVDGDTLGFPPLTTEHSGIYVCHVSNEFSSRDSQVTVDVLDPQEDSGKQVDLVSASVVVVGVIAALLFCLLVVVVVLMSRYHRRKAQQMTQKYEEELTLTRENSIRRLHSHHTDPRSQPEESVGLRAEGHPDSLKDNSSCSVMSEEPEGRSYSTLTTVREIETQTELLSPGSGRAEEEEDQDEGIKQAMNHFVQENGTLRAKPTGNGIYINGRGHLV
In words: cell-based or functional assay.

Assay [2] deals with T2, recombinant human Nectin-4-His protein (human, UniProt Q96NY8 32-349).
T2 construct: Rescreening antigen and bought ELISA antigen are treated as one molecule; also called human Nectin-4-His tagged; Ag1; not shown: His tag
T2 sequence: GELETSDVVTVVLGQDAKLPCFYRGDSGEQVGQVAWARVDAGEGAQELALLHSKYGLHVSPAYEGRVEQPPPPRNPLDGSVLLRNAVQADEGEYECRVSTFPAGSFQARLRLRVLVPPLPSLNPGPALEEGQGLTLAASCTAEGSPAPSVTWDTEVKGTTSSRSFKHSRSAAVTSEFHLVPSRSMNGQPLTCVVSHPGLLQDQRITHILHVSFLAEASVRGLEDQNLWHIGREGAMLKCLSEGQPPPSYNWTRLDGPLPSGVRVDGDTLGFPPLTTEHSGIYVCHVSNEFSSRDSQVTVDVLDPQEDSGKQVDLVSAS
In words: ELISA, recombinant antibody on coated antigen.

The target of assay [3] is T1, human nectin-4 protein expressed on the …. In words: flow cytometry, HEK 293 cells overexpressing the target. As to the method:
(§1) Human embryonic kidney (HEK) 293 cells overexpressing human, cynomolgus monkey, rat, or mouse nectin-4 protein were produced. Cells were lifted with Versene to preserve cell surface proteins and were resuspended at 10e6/mL in PBS+2% FBS. 100 μl was added to a flow tube to test […]. Primary antibodies were diluted to […] and 10 μL was added for a total of 1 μg/test. Primary antibodies (or ADCs) were incubated with cells for 1 h on ice. Then, cells were washed 1× in 2 mL PBS+2% FBS and secondary antibody was added for detection. AF488-conjugated anti-human antibody from Jackson Immunoresearch, diluted according to the manufacturer's instructions+50% glycerol, was used at 1 μL/test-diluted to ⅕ the concentration in PBS+2% FBS and 5 μL were added per tube. The secondary reagent was incubated with the cells for 30 min, then cells were washed 2× in PBS+2% FBS and analyzed by flow cytometry on a BD FacsCanto instrument equipped with FACSDiva software.
(§2) Lead clones were tested for binding to human, cynomolgus monkey, rat, or mouse nectin-4 protein expressed on the surface of HEK 293 cells. Enfortumab was included as a positive control and an anti-FITC reactive antibody was included as a negative control.

The target in assay [4] is T3, cynomolgus monkey nectin-4 protein expressed on the surface of HEK 293 cells (cynomolgus monkey, UniProt A0A2K5WES1 32-510).
T3 construct: whole, on cells
T3 sequence: T1 sequence with V39A, I230V, A437T
The description is as above. As to the method:
as §1, §2

Assay [5] concerns the target T2, recombinant human Nectin-4-His protein. In words: ELISA, hybridoma supernatant.
The target of assay [6] is T4, cynomolgus Nectin-4 His tagged (cynomolgus, UniProt A0A2K5WES1 32-349).
T4 construct: also called Ag2
T4 sequence: T2 sequence with V39A, I230V
In words: ELISA, hybridoma supernatant.

For assay [7], the target named is T5, rat nectin-4 protein expressed on the surface of HEK 293 cells (rat, UniProt D3ZET1 31-509).
T5 construct: whole, on cells
T5 sequence: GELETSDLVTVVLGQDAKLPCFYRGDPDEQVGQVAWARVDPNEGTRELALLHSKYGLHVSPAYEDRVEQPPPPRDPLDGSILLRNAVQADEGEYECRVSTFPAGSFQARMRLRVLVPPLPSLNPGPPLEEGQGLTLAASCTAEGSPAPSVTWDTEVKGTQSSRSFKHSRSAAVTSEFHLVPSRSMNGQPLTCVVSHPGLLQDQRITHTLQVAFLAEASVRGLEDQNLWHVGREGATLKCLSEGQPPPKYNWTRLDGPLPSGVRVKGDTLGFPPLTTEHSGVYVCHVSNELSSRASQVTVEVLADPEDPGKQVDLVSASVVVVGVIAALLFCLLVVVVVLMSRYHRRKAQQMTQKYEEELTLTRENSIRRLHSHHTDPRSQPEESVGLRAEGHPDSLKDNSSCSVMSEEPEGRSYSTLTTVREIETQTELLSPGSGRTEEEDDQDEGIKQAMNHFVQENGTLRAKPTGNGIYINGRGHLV
In words: flow cytometry, HEK 293 cells overexpressing the target. The method, then:
as §1, §2

The target of assay [8] is T6, mouse nectin-4 protein expressed on the surface of HEK 293 cells (mouse, UniProt Q8R007 31-508).
T6 construct: whole, on cells
T6 sequence (looked up): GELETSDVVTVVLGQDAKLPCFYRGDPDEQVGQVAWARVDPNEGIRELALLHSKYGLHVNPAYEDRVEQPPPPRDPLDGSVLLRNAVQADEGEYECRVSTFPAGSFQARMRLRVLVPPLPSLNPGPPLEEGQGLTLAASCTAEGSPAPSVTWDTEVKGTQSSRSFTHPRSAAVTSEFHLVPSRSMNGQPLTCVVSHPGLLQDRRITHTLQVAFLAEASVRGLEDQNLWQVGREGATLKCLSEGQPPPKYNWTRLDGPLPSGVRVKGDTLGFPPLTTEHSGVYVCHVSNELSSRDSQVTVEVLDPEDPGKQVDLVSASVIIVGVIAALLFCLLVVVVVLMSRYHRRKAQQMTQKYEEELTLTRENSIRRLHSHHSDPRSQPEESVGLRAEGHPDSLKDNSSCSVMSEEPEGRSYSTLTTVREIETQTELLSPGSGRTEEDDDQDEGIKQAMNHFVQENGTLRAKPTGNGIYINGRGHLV
The assay is described as above. The method, then:
as §1, §2

B1: Nectin-4 7H10H/7H10L (recombinant chimeric antibody) (antibody, V domains shown)
VH: QVQLQQPGAELVKPGASVKLSCKASGYTFTTYWMHWVKQRPGRGLEWIGGIDPYGAHIKYNEMFKTKATLTVDKPSSTAYMQLSSLTSEDSAVYYCARGDYSNWWWTYWGQGTLVTVSA
VL: DIVMTQSQKFMSTTVGDRVSITCKASQNVGTAVAWYQQIPGQSPKLLIYSASNRYTGVPDRFTGSGSGTDFTLTITNMQSEDLADYFCQHYSSYPWTFGGGTKLEIK
Regarding B1, in assay [1], the “IC50, in vitro potency, HEK Cells + Nectin-4” value (from here on “IC50, in vitro potency”) stood at 0.549 nM. In addition, in assay [2], the EC50 was determined as 0.21 nM. Besides, the Flow data in assay [3] worked out at 12300; in assay [4], 14100.

B2: Nectin-4 7H10H/7H10L (hybridoma supernatant) (antibody, V domains shown)
VH: B1 VH
VL: B1 VL
notes: Mouse antibody in hybridoma supernatant
Turning to B2, the ELISA signal in assay [5] was found to be 3.26; in assay [6] it was 3.49.

B3: Nectin-4 Hybridoma 6C8H/6C8L (recombinant chimeric antibody) (antibody, V domains shown)
VH: QVQLKQSGPGLVQPSQSLSITCTVSGFSLSTYGVHWVRQSPGKGLEWLGVIWSGGSTDYNAAFISRLTISKDNSKSQIFFKMNSLQADDTAIYYCARMMSWYFDVWGTGTTVTVSS
VL: DIVMTQSQKFMSTSVGDRVSVTCKASQNVVTNVAWYQQKPGQSPKALIYSASYRYSGVPDRFTGSGSGTDFTLTISNVQSEDLAEYFCQQYNSYPLTFGAGTKLELK
Take B3: the “IC50, in vitro potency” value in assay [1] was 0.573 nM. Further, in assay [2], the EC50 was 0.239 nM. Moreover, the Flow data in assay [3] is 10200; in assay [4], 11400; in assay [7] it was 8920; in assay [8], 194.

B4: Nectin-4 Hybridoma 6C8H/6C8L (hybridoma supernatant) (antibody, V domains shown)
VH: B3 VH
VL: B3 VL
notes: as for B2
B4: the ELISA signal turned out to be 3.16 in assay [5] and 3.4 in assay [6].

B5: Nectin-4 3C12H/3C12L (recombinant chimeric antibody) (antibody, V domains shown)
VH: B3 VH with S30T, S56N, T68S, I78V, M99T, S100H
VL: B1 VL with G30V, I39K, T76S, N77Y, H90Q, W96L, G100A, I106L
For the molecule B5, the “IC50, in vitro potency” value in assay [1] is 0.919 nM. Further, the EC50 in assay [2] is 0.282 nM. Further, the Flow data in assay [3] is 8370; in assay [4], 10600; in assay [7] it was 5060; in assay [8] it was 328.

B6: Nectin-4 12E11H/12E11L (hybridoma supernatant) (antibody, V domains shown)
VH: B3 VH with S30T, Y59C, A61G, T68S, S70I, I78V, M99T, S100H
VL: B1 VL with G30N, I39K, N53Y, T76S, H90Q, S93N, W96L, G100A, I106L
notes: as for B2
Regarding B6, the ELISA signal came to 3.21 in assay [5] and 3.44 in assay [6].

B7: Nectin-4 7 E8H/7 E8L (hybridoma supernatant) (antibody, V domains shown)
VH: B3 VH with S30A, T68S, I78V, M98N, M99S, S100H
VL: B3 VL with N77H, Q89H, S93N, L96Y, A100G, L106I
notes: as for B2
Consider B7, for which the ELISA signal in assay [5] stood at 3.11; in assay [6] it was 3.44.

B8: Nectin-4 7 E8H/7 E8L (recombinant chimeric antibody) (antibody, V domains shown)
VH: B3 VH with S30A, T68S, I78V, M98N, M99S, S100H
VL: B3 VL with N77H, Q89H, S93N, L96Y, A100G, L106I
For B8, the “IC50, in vitro potency” value in assay [1] came to 0.89 nM. In addition, in assay [2], the EC50 came to 0.361 nM. Moreover, the Flow data in assay [3] turned out to be 9200; in assay [4], 10400; in assay [7], 5970; in assay [8], 279.

B9: Nectin-4 3C12H/3C12L (hybridoma supernatant) (antibody, V domains shown)
VH: B3 VH with S30T, S56N, T68S, I78V, M99T, S100H
VL: B1 VL with G30V, I39K, T76S, N77Y, H90Q, W96L, G100A, I106L
notes: as for B2
With B9, the ELISA signal in assay [5] was determined as 3.2; in assay [6] it was 3.45.

B10: Nectin-4 5D9H/5D9L (hybridoma supernatant) (antibody, V domains shown)
VH: QVQLKQSGPGLVQPSQSLSITCTVSGFSLTNYGVHWVRQSPGKGLEWLGVIWSGGSTDYNAAFVSRLSISRDNSKSQVFFKMNSLQADDTAIYYCARSGKWYYFDYWGQGTTLTVSS
VL: DIQMTQSPASLSVSVGETVTITCRASENIYSNLAWYQQKQGKSPQLLVYAATNLADGVPSRFSGSGSGTQYSLKINSLQSEDFGSYYCQHFWGTPTFGGGTKLEIK
notes: as for B2
Consider B10, for which the ELISA signal was found to be 3.08 in assay [5] and 3.32 in assay [6].
